Data published in article PMC8943916.

Biological target: TIM (the TIM-EGFP-LacI bait of the FRAP experiment, not named)
Test: FRAP

With “TagRFP-IWS1-TND (from UniProt Q96ST2 614-692) (domain or fragment)” the FRAP half-life was 11.7 s.
